Several values for one entry are separate records, joined by “and”; a condition that tells them apart may be missing. Equal entries are not always repeated.

What is called stoichiometry N is the number of molecules, sites or subunits per partner or assembly.

Data set [1] concerns the molecule itself. The data set is described as follows: SEC-MALS; MALS in line with SEC, refractive index; SEC buffer with 5% (v/v) glycerol.
Data set [2] deals with the molecule itself. The data set is described as follows: SAXS; 0.25-6 mg/mL, 20 mM Na2HPO4 pH 6.5, 150 mM NaCl, 2 mM DTT (reducing), 300 K; monomer to dimer.
Data set [3] concerns the molecule itself. The data set is described as follows: native gel or EMSA; Blue Native gel of cytosolic and membrane fractions of HEK293 cells expressing Fe65-HA, with or without APP-myc; blots for HA and myc.

B1: Human Fe65-PTB2 (residues 534-667), crystallization construct (domain or fragment, UniProt O00213 534-667, looked up)
chain: APKNELVQKFQVYYLGNVPVAKPVGVDVINGALESVLSSSSREQWTPSHVSVAPATLTILHQQTEAVLGECRVRFLSFLAVGRDVHTFAFIMAAGPASFCCHMFWCEPNAASLSEAVQAACMLRYQKCLDARSQ
notes: Fe65 (APBB1), human, PTB2 domain, residues 534-667 of UniProtKB APBB1_HUMAN O00213; source: recombinantly expressed and purified as described previously (Radzimanowski et al., 2008a); final SEC with 5% glycerol
For the protein B1, the “stoichiometry N” value in data set [1] was 2 and 4.

B2: Wildtype Fe65-PTB2 (pETHis construct for NMR and SAXS) (domain or fragment, human, UniProt O00213 534-667, looked up)
chain: B1 chain
notes: Fe65 (APBB1), human, PTB2 domain; limits 534-667 are stated for recombinant Fe65-PTB2 in general, not separately for the pETHis construct; also called wt Fe65-PTB2
For B2, in data set [2], the “stoichiometry N” value worked out at 2.

B3: Fe65-HA (natural protein, human, UniProt O00213 1-710, looked up)
chain: MSVPSSLSQSAINANSHGGPALSLPLPLHAAHNQLLNAKLQATAVGPKDLRSAMGEGGGPEPGPANAKWLKEGQNQLRRAATAHRDQNRNVTLTLAEEASQEPEMAPLGPKGLIHLYSELELSAHNAANRGLRGPGLIISTQEQGPDEGEEKAAGEAEEEEEDDDDEEEEEDLSSPPGLPEPLESVEAPPRPQALTDGPREHSKSASLLFGMRNSAASDEDSSWATLSQGSPSYGSPEDTDSFWNPNAFETDSDLPAGWMRVQDTSGTYYWHIPTGTTQWEPPGRASPSQGSSPQEESQLTWTGFAHGEGFEDGEFWKDEPSDEAPMELGLKEPEEGTLTFPAQSLSPEPLPQEEEKLPPRNTNPGIKCFAVRSLGWVEMTEEELAPGRSSVAVNNCIRQLSYHKNNLHDPMSGGWGEGKDLLLQLEDETLKLVEPQSQALLHAQPIISIRVWGVGRDSGRERDFAYVARDKLTQMLKCHVFRCEAPAKNIATSLHEICSKIMAERRNARCLVNGLSLDHSKLVDVPFQVEFPAPKNELVQKFQVYYLGNVPVAKPVGVDVINGALESVLSSSSREQWTPSHVSVAPATLTILHQQTEAVLGECRVRFLSFLAVGRDVHTFAFIMAAGPASFCCHMFWCEPNAASLSEAVQAACMLRYQKCLDARSQASTSCLPAPPAESVARRVGWTVRRGVQSLWGSLKPKRLGAHTP
notes: Fe65 (APBB1); called full-length Fe65 in the native gel analysis; human stated for Fe65 in general; Printed both as FE65-HA and HA-Fe65; also called HA-Fe65; HA-tagged Fe65; source: HEK293, transfected (pcDNA3.1), in lysate or subcellular fraction
B3: the “stoichiometry N” value in data set [3] stood at 2.

Source of the values: article PMC5425604, “Fe65-PTB2 Dimerization Mimics Fe65-APP Interaction” (Frontiers in Molecular Neuroscience, 2017).
